T1: canine NGF receptor TrkA ECD-canine Fc fusion protein (canine)
T1 construct: also called cTrkA-ECD-IgG-B Fc fusion protein; canine TrkA-IgGBFc fusion protein
T1 chain: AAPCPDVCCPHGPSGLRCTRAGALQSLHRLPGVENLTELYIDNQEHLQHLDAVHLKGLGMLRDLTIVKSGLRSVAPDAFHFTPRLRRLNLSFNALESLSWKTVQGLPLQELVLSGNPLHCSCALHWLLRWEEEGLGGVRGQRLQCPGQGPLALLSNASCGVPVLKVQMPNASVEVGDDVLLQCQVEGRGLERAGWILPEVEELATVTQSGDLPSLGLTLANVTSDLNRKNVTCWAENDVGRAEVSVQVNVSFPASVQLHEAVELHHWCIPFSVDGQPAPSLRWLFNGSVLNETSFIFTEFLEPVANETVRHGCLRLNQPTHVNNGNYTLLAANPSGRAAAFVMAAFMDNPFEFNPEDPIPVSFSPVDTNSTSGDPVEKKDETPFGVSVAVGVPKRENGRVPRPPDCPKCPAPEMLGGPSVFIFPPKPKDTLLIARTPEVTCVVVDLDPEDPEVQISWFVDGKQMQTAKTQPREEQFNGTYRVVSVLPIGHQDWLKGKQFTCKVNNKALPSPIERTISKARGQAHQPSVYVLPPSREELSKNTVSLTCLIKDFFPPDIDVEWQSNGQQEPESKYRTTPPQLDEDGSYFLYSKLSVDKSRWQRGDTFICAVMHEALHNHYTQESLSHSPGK

B1: canine NGF (ligand)
chain: SSSHPVFHRGEFSVCDSVSVWVGDKTTATDIKGKEVMVLGEVNINNSVFKQYFFETKCRDPTPVDSGCRGIDSKHWNSYCTTTHTFVKALTMDGKQAAWRFIRIDTACVCVLSRKAGRRA
notes: also called canine Nerve Growth Factor; cNGF
B2: human-canine chimeric Fasinumab (antibody, V domains shown)
VH: QVQLVQSGAEVKKPGASVKVSCKVSGFTLTELSIHWVRQAPGKGLEWMGGFDPEDGETIYAQKFQGRVTMTEDTSTDTAYMELTSLRSEDTAVYYCSTIGVVTNFDNWGQGTLVTVSS
VL: DIQMTQSPSSLSASAGDRVTITCRASQAIRNDLGWYQQKPGKAPKRLIYAAFNLQSGVPSRFSGSGSGTEFTLTISSLQPEDLASYYCQQYNRYPWTFGQGTKVEIKR
notes: Human VH/VL of fasinumab fused to canine IgG-B constant regions and canine kappa constant region; also called Fas Chimeric; Fas Chim
B3: human-canine chimeric Fulranumab (antibody, V domains shown)
VH: EVQLVESGGGLVQPGGSLRLSCAASGFTLRSYSMNWVRQAPGKGLEWVSYISRSSHTIFYADSVKGRFTISRDNAKNSLYLQMDSLRDEDTAMYYCARVYSSGWHVSDYFDYWGQGILVTVSS
VL: AIQLTQSPSSLSASVGDRVTITCRASQGISSALAWYQQKPGKAPKLLIYDASSLESGVPSRFSGSGSGTDFTLTISSLQPEDFATYYCQQFNSYPLTFGGGTKVEIKR
notes: Human VH/VL of fulranumab fused to canine IgG-B constant regions and canine kappa constant region; expressed in HEK293, Protein A purified; also called Ful Chimeric; Ful Chim

One experiment addresses human TrkA on TF-1 cells (human, UniProt P04629 33-796). In words: cell-based or functional assay.
Experiment [1] deals with T1, canine NGF receptor TrkA ECD-canine Fc …. In words: ELISA, canine NGF on canine TrkA receptor. In general terms: An ELISA detects its analyte on a solid surface through an enzyme-linked reagent.
The experiment “canine NGF” deals with B1. Description: ELISA, canine NGF coated, anti-dog IgG Fc-HRP detection. The protocol: The binding of chimeric and caninized antibodies to canine NGF was determined by ELISA as follows: [0132] 1. Coat 100 ng/well canine NGF in an immunoplate and incubate the plate at 4° C. overnight. [0133] 2. Wash the plate 3 times by PBS with 0.05% Tween 20 (PBST). [0134] 3. Block the plate by 0.5% BSA in PBS for 45-60 min at room temperature. [0135] 4. Wash the plate 3 times by PBST. [0136] 5. Make 3-fold dilution the antibodies in each column or row of dilution plate. [0137] 6. Transfer the diluted antibodies into each column or row of the immunoplate, and incubate the plate for 45-60 min at room temperature. [0138] 7. Wash the plate 3 times by PBST. [0139] 8. Add 1:2000 diluted horseradish peroxidase labeled anti-dog IgG Fc into each well of the plate and incubate the plate for 45-60 min at room temperature. [0140] 9. Wash the plate 3 times by PBST. [0141] 10. Add TMB Substrate into each well of the plate and incubate the plate for 10 to 15 min at room temperature for color development. [0142] 11. Add 100 μL of 1.5 M phosphoric acid into each well to stop the reaction. [0143] 12. Read the plate at 450 nm with 540 nm reference wavelength.

As usually defined, the EC50 is the concentration that produces a half-maximal response.

Sequence of human TrkA on TF-1 cells (P04629 33-796): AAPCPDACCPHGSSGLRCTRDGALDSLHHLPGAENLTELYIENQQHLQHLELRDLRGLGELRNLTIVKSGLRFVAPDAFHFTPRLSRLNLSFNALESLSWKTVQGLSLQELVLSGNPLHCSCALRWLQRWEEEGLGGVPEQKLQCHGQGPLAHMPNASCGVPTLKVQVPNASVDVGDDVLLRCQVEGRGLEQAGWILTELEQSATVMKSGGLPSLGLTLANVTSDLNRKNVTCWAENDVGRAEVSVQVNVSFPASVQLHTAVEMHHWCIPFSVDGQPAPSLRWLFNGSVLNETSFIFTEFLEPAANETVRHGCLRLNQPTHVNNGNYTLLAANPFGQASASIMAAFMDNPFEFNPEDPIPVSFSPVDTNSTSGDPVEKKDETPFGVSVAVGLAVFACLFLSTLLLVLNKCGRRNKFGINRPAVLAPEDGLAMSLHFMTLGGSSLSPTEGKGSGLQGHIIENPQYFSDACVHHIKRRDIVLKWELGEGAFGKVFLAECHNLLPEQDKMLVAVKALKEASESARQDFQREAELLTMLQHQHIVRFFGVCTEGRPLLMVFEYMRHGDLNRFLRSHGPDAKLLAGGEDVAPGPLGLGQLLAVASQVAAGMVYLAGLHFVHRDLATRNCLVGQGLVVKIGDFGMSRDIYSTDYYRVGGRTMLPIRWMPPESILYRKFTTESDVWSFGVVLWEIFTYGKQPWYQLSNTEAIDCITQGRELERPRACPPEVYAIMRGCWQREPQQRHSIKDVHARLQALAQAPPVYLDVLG

With B1, the “TF-1 cell proliferation (CellTiter-Glo luminescence) EC50” value with human TrkA on TF-1 cells came to 28 nM. For the same molecule, the EC50 in experiment [1] was 54 nM.
Turning to B2, it took 122 nM to reach a half-maximal effect with canine NGF (EC50).
In turn, B3 gave a 50% effective concentration (EC50) with canine NGF of 0.022 nM.

The record behind these values is patent US20250340626A1 (INTERVET, published 2025).
